Results: the DeepSol protein solubility set

Experiment: soluble on expression in E. coli; label from the status in PepcDB or PDB records

Sequence | soluble on expression in E. coli
MNIKKHLPWLGALLPIINAQADTNPNVVIIYIDDMGIGDIGCYGGKFVATPNIDKLAQDGLLFNQYYSSAPVSSPSRCGLTTGLFPIEVGINTFLNDKASNKRCEQRNYLDDKLPSMARAFQNAGYATGHIGKWHMGGGRDVHNAPSIKNYGFDEYLSTYESPDPDPAITASKWIWCDNDSIKRWKRTEYFVDKSIDFIKRHKDSPFFLNLWPDDMHTPWVPEFKQKERKSWETKEAFSPVLGEMDKQIGRFIKALDDMGLSENTIIIFTSDNGPAPSFKAVRSAYLRGTKNSLYEGGIRMPFIVKYPKKIKPGRVNNSSVLCAVDLYPTLCSVAGIKTEKNYKGDGQNYAKVLLGKSEAKRKTDLMWDFGRNKHFGFPGNPYDRSPHLAIRSGKWKLLVNGDGSDAQLYDMELDKFEKNNIAGEHPELVAKLSKKVCEWYAQNKDKGLQTDLLEHHHHHH | soluble
DAAPAPAAEAAPAAAPAPAAAAELKEVHVPDIGGDEVEVTEIMVAIGDSIEEEQSLITVEGDKASMEVPAPFAGTLKEIKVAAGDKVSTGSLIMVFETAGSGAPAAPAAVEAPAAAAPAASAA | not soluble
MSLSPKVAWWCRHPLTFLMEAADDLCYSIVDLEDGFHMGYLPFAAVQDKLQSIADIDLNQYEGSPAETIKRLRAKAINRLVKEVAQLFLDHEPDILAGKFDQSLVELSRFSPQLKEIETMTTNAVFHHPNVVRIKIAGFEVLGDLLTDFLTSVLEKQPRPKGKLLKFMLPPEHQIAPDEDNYSKILKVTDYIAGMTDLQATLLYQQLRGEGHHHHHH | soluble
ALVELKVPDIGGHENVDIIAVEVNVGDTIAVDDTLITLETDKATMDVPAEVAGVVKEVKVKVGDKISEGGLIVVVEAEGTA | soluble
MGHHHHHHSHMLSRWDDSQRFLSDHPYLVCEETAKYLILWCFHLEAEKKGALMEQIAHQAVVMQFIMEMAKNCNVDPRGCFRLFFQKAKAEEEGYFEAFKNELEAFKSRVRLYSQSQSFQPMTVQNHVPHSGVGSIGLLESLPQNPDYLQYSISTALCSLNSVVHKEDDEPKMMDTV | not soluble
PRGSHMIILAFDIFGTVLDTSTVIQEFRNKQLEYTWLLTIMGKYVEFEEITKITLRYILKVRGEESKFDEELNKWKNLKAYEDTKYLKEISEIAEVYALSNGSINEVKQHLERNGLLRYFKGIFSAESVKEYKPSPKVYKYFLDSIGAKEAFLVSSNAFDVIGAKNAGMRSIFVNRKNTIVDPIGGKPDVIVNDFKELYEWILRYK | soluble
MGSDKIHHHHHHMDAPSRSHLASPILVANYRSLPSFMYRDSLPEAAVSPQLLALNTRLLETLEQDLAWFNSSDALEQLSGKTYYGSNLPFALAYSGHQFGGWSPVLGDGRAHVLGQLKTAADELIDVQLKGSGATPFSRGGDGRATLGAVIREYLLSEAMAGLNISTTGSLAVIATGEDVWRNGAYPGAILVRTAKSHLRVGSFQYAAVHQGPEAVKTLADFALAQYYPELSHDENPYQALLAQVIKGQAELVAQWMLVGFIHGVMNTDNSSITGETIDYGPCAFMDEFNPNKVFSSIDSQGRYAWGNQGAIAQWNMARLGETLLPLLDSDEAKALEIAQAQLGDFNRLFAEHFYQGMARKLSLDASDPELIPFVDSTLQLMTNTRVDFCQFFNALTEYHSTHREQDAGLVALFSTEAFPSLSSTPAQLLQDWLSQWQAKACDSQAALAAMIKANPKFIARNHKVEAAISAAEQNNDYSLFLDMARVLANPYVLAEQDKHYQDAPTPDQRVKQTFCGT | not soluble
SELPPEPQANGEAVGAGGGPIYYIYEEEEEEEEEEEEPPPEPPKLVNDKPHKFKDHFFKKPKFCDVCARMIVLNNKFGLRCKNCKTNIHEHCQSYVEMQRCFGKIPPGFHRAYSSPLYSNQQYACVKDLSAANRNDPVFETLRTGVIMANKERKKGQADKKNPVAAMMEEEPESARPEEGKPQDGNPEGDKKAEKKTPDDKHKQPGFQQSHYFVALYRFKALEKDDLDFPPGEKITVIDDSNEEWWRGKIGEKVGFFPPNFIIRVRAGERVHRVTRSFVGNREIGQITLKKDQIVVQKGDEAGGYVKVYTGRKVGLFPTDFLEEI | soluble
MSLTEMLSTEDFDFDLPEELIAQTPLKDRASSRLLVVNKETGDMEDKHFHDILDELQPGDALVMNNTRVLPARLYGEKPETGGHLEVLLLTNTEGDTWETLIKPAKRAKVGTEIQFGDGRLKAVVKEELEHGGRIIEFKYDGIFLEILESLGEMPLPPYIKERLDDPDRYQTVYAEENGSAAAPTAGLHFTKELLEEIKAKGVHLVYLTLHVGLGTFRPVSVDNIEEHHMHSEFYRLTEEAAKQLNEVRQAGGRIVAVGTTSIRTLETIGTKFNGEIQADSGWTDIFITPGYQFKVVEAFSTNFHLPKSTLVMLVSAFAGKDLTLAAYQHAIEEKYRFFSFGDAMFIKEGGSHHHHHH | soluble
GLGEKKEGHFSALPSLPVGSHAKVSSPQPRGPRYAEGTFISDYSIAMDKIHQQDFVNWLLAQKGKKNDWKHNITQREARALELASQANRKEEEAVEPQSSPAKNPSDEDLLRDLLIQELLACLLDQTNLCRLRSR | soluble
MFNRGNTRVDVSSEPGTSGRYPERMIDQLPANYPCAKLKLDQFFLQWLSEHQDLVSTLVEDIQAGRPIHAPTAPVGPSPLSPSTAHMIFASTPPISPSKTRSPGTPLSPARRSTTTLGGSQKRGPLVSIPQFYFPTQSSNAGQGSDPATRDFLQRAEAAYKTDGGAAGLGQKAFVKMMQEVCELPSMVAYSLFKRLTGCEAGEEEGAAVPRDTFIKFWTGRGLVTAPPPKRAFDSLRPDGQDYLTFADFWPMMECVLRYHPGLEFLAETQEFQRKYAETVIHRIFYSLNKCGSGRLTFREFRSGELMDALYALDRENDINKILKFFSYEHFYVIYCKFWELDQDHDFQLDKTDLAHYSNCALSYVIVDRIFEEAPRKFKAGTPPGKMCYEDFVWFILSEEDKTTDTALTYWFRCVDLDGDGVIRPREMLYFYEEQLRRLEGWNQEPVQFEDLLCQLHDMLSPAKEGAFTLRDLKRTKPQSGLFFSSLFSLHKFVGFENRDPFAQRAEAAEFTGLSDWDKFAKIEYFRLASEDDQQDTAGGAMDTDEQI | not soluble
MDSLMRVFSHRSPPPSFGFACDVGAHPSSTAQNLPMTYGSVREMIDDFSIVFGVPKYRTSKPKKVTRKFSFTRLLQPIDNLVTCPACSNIHPSDTICDACYAKVHQLTSEIKKKMMQYNPYVGEKQDKEVYVKFRGEPDAPAAVVKGKRVLEIEKERPTWFKKLTLKE | not soluble
EKDKYALALKDKGNQFFRNKKYDDAIKYYNWALELKEDPVFYSNLSACYVSVGDLKKVVEMSTKALELKPDYSKVLLRRASANEGLGKFADAMFDLSVLSLNGDFNDASIEPMLERNLNKQAMSKLKEKFGDIDTATATPTELSTQPAKERKDKQENLPSVTSMASFFGIFKPELTFANYDESNEADKELMNGLSNLYKRSPESYDKADESFTKAARLFEEQLDKNNEDEKLKEKLAISLEHTGIFKFLKNDPLGAHEDIKKAIELFPRVNSYIYMALIMADRNDSTEYYNYFDKALKLDSNNSSVYYHRGQMNFILQNYDQAGKDFDKAKELDPENIFPYIQLACLAYRENKFDDCETLFSEAKRKFPEAPEVPNFFAEILTDKNDFDKALKQYDLAIELENKLDGIYVGIAPLVGKATLLTRNPTVENFIEATNLLEKASKLDPRSEQAKIGLAQMKLQQEDIDEAITLFEESADLARTMEEKLQAITFAEAAKVQQRIRSDPVLAKKIQET | soluble
MGHHHHHHSHMKEPLDGECGKAVVPQQELLDKIKEEPDNAQEYGCVQQPKTQESKLKIGGVSSVNERPIAQQLNPGFQLSFASSGPSVLLPSVPAVAIKVFCSGCKKMLYKGQTAYHKTGSTQLFCSTRCITRHSSPACLPPPPKKTCTNCSKYKILNIPFYFTFF | not soluble
SAENERMYISYNNIHKLCQGVAKHILARNERPDIIIAITGGGMIPARIIRSFLKTKGQKNIPIQAIGLSLYEDLGLDNSVETIGKEVIRTQWLDFGALNQHFDSLIGKKVLIVDEVDDTRTTLHYAVSELEKEIAEQQKVLNRMSEETVISIFVLHNKDKPKRAGLPDSMMNSGRYIAAQTVPDKWLCYPWDAEDIEEHTMLAKAQGHD | soluble
MHIMVTQGGLMSLSIVHTRAALGVNAPPITVEVHISKGLPGLTMVGLPETTVKEARDRVRSAIINSGYEYPAKKITINLAPADLPKEGGRYDLPIAIALLAASEQLTANKLDEYELVGELALTGALRGVPGAISSATEAIKSGRKIIVAKDNEDEVGLINGEGCLIADHLQAVCAFLEGKHALERPKPTDAVSRALQHDLSDVIGQEQGKRGLEITAAGGHNLLLIGPPGTGKTMLASRINGLLPDLSNEEALESAAILSLVNAESVQKQWRQRPFRSPHHSASLTAMVGGGAIPGPGEISLAHNGVLFLDELPEFERRTLDALREPIESGQIHLSRTRAKITYPARFQLVAAMNPSPTGHYQGNHNRCTPEQTLRYLNRLSGPFLDRFDLSLEIPLPPPGILSKTVVPGESSATVKQRVMAARERQFKRQNKLNAWLDSPEIRQFCKLESEDAMWLEGTLIHLGLSIRAWQRLLKVARTIADIDQSDIITRQHLQEAVSYRAIDRLLIHLQKLLT | not soluble
MEKHPGKLFYRLSRLAPGDALPLKRGPKAKVYANPLETQALPPFRQDGGPPLFRAMAHLRPLLPEVGASLTLKDLSQVLYPLAEREGRRGFPSAGEAYPLEAYLVVRRVEGVFPGVYHYFPREHQLFQIASKVEEAAWAEALMGVALDRAAVLLVLTLLPERSEALFGLRGYRYALLEAGYAAGLVLLAAVGQGLAAYPAETFHDEGVARLLGLPEGEYPGVVVVLGR | soluble
MSLQIEFREFNPFDCWIWVEFSTVPAPLEQQYLEELFDSWFFLGKLGGFNAENLQAQEEGLELSYMSYQSAQERSSLAALMHNMGEVEYQGRWARCWFDLGTSDAIALDVLLNALQRLSEEMVGLEQVFVGGENADWPSPGRRSLDFAADEGHHHHHH | soluble
MIEFFLPMDKIPTTTHQQKKVTVINGKPHFYEPESLKNARDKFTSLLAQHVPPSKLDGPIRLTVKWLFPKIKGSTNGQYKTTKPDTDNLQKLLKDCMTELGFWNDDAQVASEIIEKFWADTVGIYVKVEEL | not soluble
MRSLTHIAKIELPPVRRVTYVKHYSIQPANLEFNAEGTPVSRDFDDVYFSNDNGLEETRYVFLGGNQLEARFPEHPHPLFVVAESGFGTGLNFLTLWQAFDQFREAHPQAQLQRLHFISFEKFPLTRADLALAHQHWPELAPWAEQLQAQWPMPLPGCHRLLLDEGRVTLDLWFGDINELISQLDDSLNQKVDAWFLDGFAPAKNPDMWTQNLFNAMARLARPGGTLATFTSAGFVRRGLQEAGFTMQKRKGFGRKREMLCGVMEQTLPLPCSTPWFNRTGSSKREVAIIGGGIASALLSLALLRRGWQVTLYCADEAPALGASGNRQGALYPLLSKHDEALNRFFSNGFTFARRLYDSLPVKFDHDWCGVTQLGWDEKSQHKIAQMLSMDLPEELAVAVEANAVEQITGVTTNCSGITYPQGGWLCPAELTRNVLELAQQQGLQIYYQYQLQDLSRKDDCWLLTFAGDQQATHSVVVLANGHQISRFSQTSSLPVYSVAGQVSHIPTTPELAKLKQVLCYDGYLTPQNPANQHHCIGASYHRGSEETAYSEDNQQQNRQRLIDCFPHAQWAKTVDVSKKEARCGVRCATRDHLPMVGNVPDYEATLVEYASLAEQKDKAVSAPVFDDLFMFAALGSRGLCSAPLCAEILAAQMSDEPIPMDASTLAALNPNRLWVRKLLKGKAVKAG | not soluble
